Primed or numbered codes have the meaning given here. The star is where a group is joined. Biotin = O=C1N[C@H]2[C@H](CS[C@H]2CCCCC(=O)*)N1; FITC′ = not defined here
Columns and labels:
KLK4_(S207A) = target: T1, KLK4_(S207A) (human, UniProt Q9Y5K2 31-254, S207A); assay: SPR; ProteOn XPR36; biotinylated PAR1 peptide immobilised on an NLC chip via NeutrAvidin-biotin (2600 RU); KLK4 variants flowed over in PBST at 30 µL/min for 818 s, dissociation 30 min (166 min for KLK4 S207A,L185D); 25 °C; empty channel subtracted; 1:1 Langmuir kinetic model; settings: both partners purified
T1 construct: Kallikrein-related peptidase 4 (KLK4), human, UniProtKB Q9Y5K2; peptidase domain left after thermolysin removed the pro-peptide S27CSQ30 (begins at residue 31); S207 is Ser195 in chymotrypsin numbering; also called KLK_(S207); not shown: FLAG, N-terminal, cleaved
T1 sequence (Q9Y5K2 31-254 S207A): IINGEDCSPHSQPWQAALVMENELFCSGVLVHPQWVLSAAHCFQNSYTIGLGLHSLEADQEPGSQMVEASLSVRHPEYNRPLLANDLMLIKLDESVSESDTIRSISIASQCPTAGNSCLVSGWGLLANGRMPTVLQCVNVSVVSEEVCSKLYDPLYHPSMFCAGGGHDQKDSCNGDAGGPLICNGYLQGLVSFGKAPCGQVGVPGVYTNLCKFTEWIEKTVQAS

KLK4_(S207A,L185D) = target: T2, KLK4_(S207A,L185D) (human, UniProt Q9Y5K2 31-254, S207A | L185D); assay: as above; settings: both partners purified
T2 construct: Kallikrein-related peptidase 4 (KLK4), human, UniProtKB Q9Y5K2; peptidase domain left after thermolysin removed the pro-peptide S27CSQ30 (begins at residue 31); L185D chosen by in-silico saturation mutagenesis; also called KLK4_(L185D,S207A); KLK_(S207,L185D); not shown: FLAG, N-terminal, cleaved
T2 sequence (Q9Y5K2 31-254 L185D/S207A): as the sequence (Q9Y5K2 31-254 S207A) above, with L155D counted along it

B1: biotinylated PAR1 peptide (biotin-31SKATNATLDPRSFLLRNPNDKYEPFWED58-FITC) (peptide)
peptide: Biotin-SKATNATLDPRSFLLRNPNDKYEPFWED-{FITC′}
notes: also called PAR1 extracellular peptide; source: synthetic peptide, bought: Peptron, Daejeon, Korea (>95%)
- Kd (KLK4_(S207A)): 1120 nM
- koff (KLK4_(S207A)): 0.000391 s⁻¹
- kon (KLK4_(S207A)): 349 M⁻¹ s⁻¹
- Kd (KLK4_(S207A,L185D)): 55.5 nM
- koff (KLK4_(S207A,L185D)): 3.17e-06 s⁻¹
- kon (KLK4_(S207A,L185D)): 57 M⁻¹ s⁻¹

— publication PMC8352894, “A KLK4 proteinase substrate capture approach to antagonize PAR1” (Scientific Reports, 2021)
